According to patent US20030049258A1, “Method of increasing the contractility of a heart, a heart muscle or cells of a heart muscle” (priority 2001, published 2003):

Assays:
[1] = test system: adult ventricular cardiomyocytes; experiment: Intracellular cAMP formation in cardiomyocytes (ELISA); format: cell-based, rabbit
Description: (§1) Single calcium-tolerant ventricular myocytes were isolated from White New Zealand rabbits. Cardiomyocytes from healthy or failing rabbit hearts were isolated according to the same protocol (Laugwitz et al. (2001) Circ Res. 88, 688-95). Briefly, the hearts were perfused and digested with collagenase. The isolated cardiomyocytes were then resuspended and cultured in modified M199 on laminin-precoated dishes (5-10 μg/cm^2) at a density of 1.5×10^5 cells per cm^2 (at 5% CO2 and 37° C.). The cells were infected with adenovirus (multiplicity of infection (moi) 1 pfu/cell) 5 hours after plating. 50-60% of the infected cardiomyocytes express the transgene at this titer. Cardiomyocytes were harvested 48 hours after adenoviral infection. The cells were homogenized and cytosolic extracts were then used for western bloffing by using a polyclonal rabbit antibody raised against phosducin. Goat anti-rabbit second antibodies by Dianova, Germany, were used as second antibodies.
Intracellular cAMP formation in cardiomyocytes: The effects of nt-del-phosducin expression on G protein-mediated signalling are shown based on the measurement of cAMP accumulation in isolated cardiomyocytes after ex vivo gene transfer. Cardiomyocytes were investigated 48 hours after adenoviral infection. The cells were harvested and stimulated with increasing concentrations of isoproterenol for 20 minutes. […]

[2] = test system: cardiomyocytes isolated from healthy hearts; experiment: Single cell contraction after ex vivo adenoviral gene transfer, healthy cardiomyocytes; format: cell-based, rabbit
Description: (§2) Recombinant (E1/E3-Deficient) flag-tagged adenovirus for nt-del-phosducin (Ad-nt-del-phosducin-GFP) was generated, expressing the transgene and green fluorescence protein (GFP) under the control of two independent CMV promoters in a bi-cistronic system (He et al. (1998) Proc Natl Acad Sci USA 95, 2509-14). As a control, Ad-GFP without further transgenes was used. Large virus stocks were prepared as described previously (Laugwitz et al. (1999) Circulation 99, 925-933). Adenoviral titers were determined using plaque titration and GFP expression titration in non E1-expressing cells.
as §1
(§3) Single cell contraction after adenovirus delivery: Contractility of infected cardiomyocytes was measured by an electro-optical monitoring system connected to online digitalized assessment of amplitude and velocity of shortening and of relaxation as described before (Laugwitz et al. (2001) Circ Res. 88, 688-95). After the contraction amplitude reached stability, increasing concentrations of isoproterenol were applied.

[3] = test system: cardiomyocytes isolated from failing hearts; experiment: Single cell contraction after ex vivo adenoviral gene transfer, failing cardiomyocytes; format: cell-based, rabbit
Description: as §2, §1, §3

[4] = test system: Gβγ-dependent signalling pathways; experiment: IP3 assay: inhibition of Gβγ-mediated effects in adenovirus-infected cardiomyocytes; format: cell-based, rabbit; details: response to 1 μmol/L bradykinin or 10 μmol/l acetylcholine, 1 minute, vs Ad-GFP
Description: For IP3 assays, adenovirus-infected cardiomyocytes were stimulated with the respective agonists for 1 minute, and the reaction was stopped by adding perchloric acid (4%) and scratching the cells off. They were centrifuged at 2000×g, and then […] of KOH (10 mol/L) was added. The solution was resuspended and centrifuged again, and the protein content of each sample was determined by the method of Bradford (1976) Anal. Biochem. 72, 248-254. The supernatant was used for an assay kit using ^3H-inositol-(1,4,5)-trisphophate and a binding protein (Amersham, cat. no. TRK 1000) to measure IP3 formation, following the manufacturer's instructions.
For IP3 assays, cardiomyocytes infected with Ad-GFP or Ad-nt-del-phosducin-GFP (Example 1) were stimulated with 1 μmol/L bradykinin or 10 μmol/l acetyl choline, for 1 minute. In addition, basal levels were determined in the absence of agonists. Then the reaction was stopped by adding perchloric acid (4%) and scratching the cells off. They were centrifuged at 2000×g, and then 10 μl of KOH (10 mol/L) was added. The solution was resuspended and centrifuged again, and the protein content of each sample was determined by the method of Bradford^22. The supernatant was used for an assay kit using ^3H-inositol-(1,4,5)-trisphophate and a binding protein (Amersham, cat. no. TRK 1000) to measure IP3 formation, following the manufacturer's instructions. […]

[5] = test system: rabbits with heart failure; experiment: Pacing-induced heart failure after in vivo adenoviral gene transfer: tip catheterization and echocardiography; parameters: species or system New Zealand White rabbits
Description: Model of Heart Failure: Medtronic pacemakers were implanted into New Zealand White rabbits (weight 3.6±0.3 Kg; from Harlan, Munich, Germany). Two days afterwards, rapid pacing was initiated at 320 beats/min. Under this protocol, a tachycardia-induced heart failure (HF) develops reproducibly over one week. Pacing was then continued at 360 beats/min, which predictably led to a further deterioriation of heart failure. The average contractility in failing hearts was 2200±320 mmHg/sec (vs. 4000±390 mmHg/sec in healthy controls; p<0.05), and LVEDP increased from 3.6±0.4 mmHg to 13.5±1.2 (p<0.05).
Adenoviral Gene Transfer To Rabbit Myocardium: After the first week of rapid pacing, all rabbits received catheter-based adenoviral gene transfer (5×10^9 pfu) to the myocardium as described before (Weig et al. (2000) Circulation 101, 1578-1585). For the intervention, the rabbitswere anesthetized with fentanyl and propofol.
Myocardial Contractility Measurement by Echocardiography and Intraventricular Tip Catheterization: Left ventricular contractility was examined before the initiation of rapid pacing, before adenoviral gene transfer, and at the end of the protocol (two weeks after the start of pacing and one week after gene transfer). The rabbits were anesthetized as described before; ECG was monitored continuously.
For echocardiography, a 7.5 MHz probe was fixed on a tripod. Standard sections were recorded, which were well reproducible. For tip catheter measurements, a Millar 3F tip catheter connected to a differentiating device was placed in the left ventricle. After definition of basal contractility and left ventricular pressure, 200 μL of NaCl (0.9%) was injected as a negative control. Isoproterenol was infused at increasing doses. After a sufficient equilibration period, tip catheter measurements were carried out.
Improvement of LV dysfunction in pacing-induced heart failure after adenovirus delivery: Ad-GFP and Ad-nt-del-phosducin-GFP were directly delivered to rabbit hearts after 1 week of rapid pacing, and hemodynamic parameters were measured after another week of pacing at 360 bpm. […]

[6] = test system: transgenic heart failure model (β1-TG4); experiment: Transgenic mouse overexpressing full-length phosducin cross-bred with heart failure model (histology); format: in vivo; details: heart-failing mice vs heart-failing mice cross-bred with overexpressing mice
Description: FIG. 8 Histological alterations in transgenic mouse hearts. Hematoxylin/eosin-stained 5 μm sections of paraffin-embedded left ventricular myocardium from healthy wild-type mice and from a transgenic heart failure model (,β-TG4”, see Engelhardt et al. (1999) Proc. Natl. Acad. Sci. USA 96, 7059-64). […] The sequence of full-length phosducin was cloned into a plasmid as described by Engelhardt et al. (1999) Proc. Natl. Acad. Sci. USA 96, 7059-64. The purified linear DNA (1 μg/μl) was injected into fertilized oocytes from superovulated FVB/N mice according to standard procedures. The injected oocytes were transferred to the oviducts of pseudopregnant CD-1 mice. All mice were kept in a specific pathogen-free facility. Generation and investigation of these mice was approved by the responsible government authorities. The F0 generation was screened for integration of the transgene by PCR using specific primers. The transgenic mouse was tested with regard to the effect of overexpression of wild type full-length phosducin on the development of heart failure in a murine disease model.

adenylyl cyclase = details: compared to controls in different cell types and tissues (Bauer et al. 1992; Schulz et al. 1996); cited from earlier work

## CC(C)NCC(O)c1ccc(O)c(O)c1 (stereo not drawn) [isoproterenol, reference compound]
[1]; isoproterenol stimulation, all groups, FIG. 3
  intracellular cAMP content: increased

B1: nt-del-phosducin: N-terminal truncated human phosducin variant of SEQ ID No: 2 (52 N-terminal amino acids deleted), expressed from adenovirus Ad-nt-del-phosducin-GFP (protein, listed as Homo sapiens)
chain: MSSPQSRDDKDSKERFSRKMSVQEYELIHKDKEDENCLRKYRRQCMQDMHQKLSFGPRYGFVYELESGEQFLETIEKEQKITTIVVHIYEDGIKGCDALNSSLICLAAEYPMVKFCKIKASNTGAGDRFSSDVLPTLLVYKGGELLSNFISVTEQLAEEFFTGDVESFLNEYGLLPEKEMHVLEQSNMEEDME
modifications: GFP expressed via adenovirus
[2]; compared to Ad-GFP-infected control cells, FIG. 5A
  basal and maximal contractility in response to isoproterenol: markedly increased
[2]; compared with contraction amplitude results, normal and failing cardiomyocytes
  shortening velocity: Very similar results
[2]; healthy cells, infected ex vivo, Hill equation fit
  Emax of fractional shortening in response to isoproterenol: 11.2±0.2
[2]; normal cells
  shift of isoproterenol concentration-response curve: significantly shifted to the left
[3]; failing cardiomyocytes, FIG. 5B
  maximal contraction amplitude in response to isoproterenol: enhanced
[3]; failing cells
  shift of isoproterenol concentration-response curve: significantly shifted to the left
[3]; failing cells, infected ex vivo, Hill equation fit
  Emax of fractional shortening in response to isoproterenol: 7.8±0.1
[1]; 48 hours after infection, isoproterenol 20 minutes, vs GFP, did not reach statistical significance
  cAMP formation in response to isoproterenol: trend towards decreased cAMP formation
[4]
  intracellular IP3 formation: reduced
[5]; change during the second week of rapid pacing (before gene transfer vs end of experiment)
  LV fractional shortening (FS) by serial echocardiography: did not change
[5]; one week after gene transfer, in response to isoproterenol, vs Ad-GFP-infected control group
  first derivative of LV pressure (dp/dt max): significantly higher
[5]; one week after gene transfer, vs Ad-GFP-infected control group
  increase in systolic LV pressure in response to isoproterenol: significantly higher

B2: full-length phosducin: Wild type full-length phosducin, Gβγ binding protein; overexpressed in transgenic mouse hearts (protein)
chain: MEEAKSQSLEEDFEGQATHTGPKGVINDWRKFKLESQDSDSIPPSKKEILRQMSSPQSRNGKDSKERVSRKMSIQEYELIHKEKEDENCLRKYRRQCMQDMHQKLSFGPRYGFVYELETGKQFLETIEKELKITTIVVHIYEDGIKGCDALNSSLTCLAAEYPIVKFCKIKASNTGAGDRFSLDVLPTLLIYKGGELISNFISVAEQFAEEFFAGDVESFLNEYGLLPEREVHVLEHTKIEEEDVE
[6]
  degree of heart failure (histologically: myocyte hypertrophy and fibrosis of heart sections): no observable differences
Adenylyl cyclase
  maximal βAR-dependent adenylyl cyclase stimulability: significantly decrease
